In patent US20220298218A1 (ANTAG THERAPEUTICS, published 2022):
Read-outs that look alike come from different tables or passages of the source. Where no end group is shown, it is not given here. The star is where a group is joined. C16 diacid = O=C(O)CCCCCCCCCCCCCCC(=O)*

T1: human GIP receptor (human, UniProt P48546 22-466)
T1 sequence (looked up): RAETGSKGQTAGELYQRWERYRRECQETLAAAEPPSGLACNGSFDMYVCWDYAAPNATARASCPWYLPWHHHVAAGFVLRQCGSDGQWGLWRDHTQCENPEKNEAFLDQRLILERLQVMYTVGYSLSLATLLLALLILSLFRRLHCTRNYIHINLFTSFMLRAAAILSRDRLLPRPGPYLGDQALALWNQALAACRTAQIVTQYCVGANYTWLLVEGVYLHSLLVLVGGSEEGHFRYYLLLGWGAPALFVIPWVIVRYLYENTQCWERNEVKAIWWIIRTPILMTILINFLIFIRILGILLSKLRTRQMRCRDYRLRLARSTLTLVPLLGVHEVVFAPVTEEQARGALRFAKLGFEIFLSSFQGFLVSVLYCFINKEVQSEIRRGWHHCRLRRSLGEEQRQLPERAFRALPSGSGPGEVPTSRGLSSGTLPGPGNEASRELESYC


How the values were obtained:
human GIP receptor [1] = target: T1, human GIP receptor; experiment: cell-based or functional assay
human GIP receptor [2] = target: T1, human GIP receptor; experiment: cell-based or functional assay; remark: listed apart in the source

Row | Binder | cAMP agonism Emax (human GIP receptor [1]) | cAMP antagonism (human GIP receptor [1]) [nM] | cAMP antagonism % inhib (human GIP receptor [1]) [%] | cAMP antagonism log (human GIP receptor [1]) [log M] | cAMP agonism % Emax (human GIP receptor [2]) [%] | cAMP antagonism (human GIP receptor [2]) [nM] | cAMP antagonism % inhib (human GIP receptor [2]) [%] | cAMP antagonism pIC50 (human GIP receptor [2])
1 | EGTFISDYSIAMDKIK(C16 diacid)QQDFVNWLLAQKGKKNDWKH-OH (N-terminus assumed; SMILES CC[C@H](C)[C@H](NC(=O)[C@H](CO)NC(=O)[C@H](Cc1ccc(O)cc1)NC(=O)[C@H](CC(=O)O)NC(=O)[C@H](CO)NC(=O)[C@@H](NC(=O)[C@H](Cc1ccccc1)NC(=O)[C@@H](NC(=O)CNC(=O)[C@@H](N)CCC(=O)O)[C@@H](C)O)[C@@H](C)CC)C(=O)N[C@@H](C)C(=O)N[C@@H](CCSC)C(=O)N[C@@H](CC(=O)O)C(=O)N[C@@H](CCCCN)C(=O)N[C@H](C(=O)N[C@@H](CCCCNC(=O)CCCCCCCCCCCCCCC(=O)O)C(=O)N[C@@H](CCC(N)=O)C(=O)N[C@@H](CCC(N)=O)C(=O)N[C@@H](CC(=O)O)C(=O)N[C@@H](Cc1ccccc1)C(=O)N[C@H](C(=O)N[C@@H](CC(N)=O)C(=O)N[C@@H](Cc1c[nH]c2ccccc12)C(=O)N[C@@H](CC(C)C)C(=O)N[C@@H](CC(C)C)C(=O)N[C@@H](C)C(=O)N[C@@H](CCC(N)=O)C(=O)N[C@@H](CCCCN)C(=O)NCC(=O)N[C@@H](CCCCN)C(=O)N[C@@H](CCCCN)C(=O)N[C@@H](CC(N)=O)C(=O)N[C@@H](CC(=O)O)C(=O)N[C@@H](Cc1c[nH]c2ccccc12)C(=O)N[C@@H](CCCCN)C(=O)N[C@@H](Cc1c[nH]cn1)C(=O)O)C(C)C)[C@@H](C)CC) [AT452] | 7.2 | 5 | 75 | -8.3 | 0 | 7.59 | 97 | 8.1
2 | EGTFISDYSIAMDKIK(C16 diacid)QQDFVNWLLAQKGKKNDWK-OH (N-terminus assumed; SMILES CC[C@H](C)[C@H](NC(=O)[C@H](CO)NC(=O)[C@H](Cc1ccc(O)cc1)NC(=O)[C@H](CC(=O)O)NC(=O)[C@H](CO)NC(=O)[C@@H](NC(=O)[C@H](Cc1ccccc1)NC(=O)[C@@H](NC(=O)CNC(=O)[C@@H](N)CCC(=O)O)[C@@H](C)O)[C@@H](C)CC)C(=O)N[C@@H](C)C(=O)N[C@@H](CCSC)C(=O)N[C@@H](CC(=O)O)C(=O)N[C@@H](CCCCN)C(=O)N[C@H](C(=O)N[C@@H](CCCCNC(=O)CCCCCCCCCCCCCCC(=O)O)C(=O)N[C@@H](CCC(N)=O)C(=O)N[C@@H](CCC(N)=O)C(=O)N[C@@H](CC(=O)O)C(=O)N[C@@H](Cc1ccccc1)C(=O)N[C@H](C(=O)N[C@@H](CC(N)=O)C(=O)N[C@@H](Cc1c[nH]c2ccccc12)C(=O)N[C@@H](CC(C)C)C(=O)N[C@@H](CC(C)C)C(=O)N[C@@H](C)C(=O)N[C@@H](CCC(N)=O)C(=O)N[C@@H](CCCCN)C(=O)NCC(=O)N[C@@H](CCCCN)C(=O)N[C@@H](CCCCN)C(=O)N[C@@H](CC(N)=O)C(=O)N[C@@H](CC(=O)O)C(=O)N[C@@H](Cc1c[nH]c2ccccc12)C(=O)N[C@@H](CCCCN)C(=O)O)C(C)C)[C@@H](C)CC) [AT451] | 9.2 | 8 | 75 | -8.1 | 0 | 2.33 | 99 | 8.6
3 | EGTFISDYSIAMDKIK(C16 diacid)QQDFVNWLLAQKGKKNDWKHN-OH [AT362] | 7 | 5 | 86 | -8.3 | 0 | 14.7 | 94 | 7.8
4 | EGTFISDYSIAMDKIK(C16 diacid)QQDFVNWLLAQKGKKNDWKHNIT-OH (N-terminus assumed; SMILES CC[C@H](C)[C@H](NC(=O)[C@H](CO)NC(=O)[C@H](Cc1ccc(O)cc1)NC(=O)[C@H](CC(=O)O)NC(=O)[C@H](CO)NC(=O)[C@@H](NC(=O)[C@H](Cc1ccccc1)NC(=O)[C@@H](NC(=O)CNC(=O)[C@@H](N)CCC(=O)O)[C@@H](C)O)[C@@H](C)CC)C(=O)N[C@@H](C)C(=O)N[C@@H](CCSC)C(=O)N[C@@H](CC(=O)O)C(=O)N[C@@H](CCCCN)C(=O)N[C@H](C(=O)N[C@@H](CCCCNC(=O)CCCCCCCCCCCCCCC(=O)O)C(=O)N[C@@H](CCC(N)=O)C(=O)N[C@@H](CCC(N)=O)C(=O)N[C@@H](CC(=O)O)C(=O)N[C@@H](Cc1ccccc1)C(=O)N[C@H](C(=O)N[C@@H](CC(N)=O)C(=O)N[C@@H](Cc1c[nH]c2ccccc12)C(=O)N[C@@H](CC(C)C)C(=O)N[C@@H](CC(C)C)C(=O)N[C@@H](C)C(=O)N[C@@H](CCC(N)=O)C(=O)N[C@@H](CCCCN)C(=O)NCC(=O)N[C@@H](CCCCN)C(=O)N[C@@H](CCCCN)C(=O)N[C@@H](CC(N)=O)C(=O)N[C@@H](CC(=O)O)C(=O)N[C@@H](Cc1c[nH]c2ccccc12)C(=O)N[C@@H](CCCCN)C(=O)N[C@@H](Cc1c[nH]cn1)C(=O)N[C@@H](CC(N)=O)C(=O)N[C@H](C(=O)N[C@H](C(=O)O)[C@@H](C)O)[C@@H](C)CC)C(C)C)[C@@H](C)CC) [AT454] | 8.9 | 54 | 82 | -7.3 | 0 | 6.81 | 84 | 8.2
5 | EGTFISDYSIAMDKIK(C16 diacid)QQDFVNWLLAQKGKKNDWKHNITQ-OH (N-terminus assumed; SMILES CC[C@H](C)[C@H](NC(=O)[C@H](CO)NC(=O)[C@H](Cc1ccc(O)cc1)NC(=O)[C@H](CC(=O)O)NC(=O)[C@H](CO)NC(=O)[C@@H](NC(=O)[C@H](Cc1ccccc1)NC(=O)[C@@H](NC(=O)CNC(=O)[C@@H](N)CCC(=O)O)[C@@H](C)O)[C@@H](C)CC)C(=O)N[C@@H](C)C(=O)N[C@@H](CCSC)C(=O)N[C@@H](CC(=O)O)C(=O)N[C@@H](CCCCN)C(=O)N[C@H](C(=O)N[C@@H](CCCCNC(=O)CCCCCCCCCCCCCCC(=O)O)C(=O)N[C@@H](CCC(N)=O)C(=O)N[C@@H](CCC(N)=O)C(=O)N[C@@H](CC(=O)O)C(=O)N[C@@H](Cc1ccccc1)C(=O)N[C@H](C(=O)N[C@@H](CC(N)=O)C(=O)N[C@@H](Cc1c[nH]c2ccccc12)C(=O)N[C@@H](CC(C)C)C(=O)N[C@@H](CC(C)C)C(=O)N[C@@H](C)C(=O)N[C@@H](CCC(N)=O)C(=O)N[C@@H](CCCCN)C(=O)NCC(=O)N[C@@H](CCCCN)C(=O)N[C@@H](CCCCN)C(=O)N[C@@H](CC(N)=O)C(=O)N[C@@H](CC(=O)O)C(=O)N[C@@H](Cc1c[nH]c2ccccc12)C(=O)N[C@@H](CCCCN)C(=O)N[C@@H](Cc1c[nH]cn1)C(=O)N[C@@H](CC(N)=O)C(=O)N[C@H](C(=O)N[C@H](C(=O)N[C@@H](CCC(N)=O)C(=O)O)[C@@H](C)O)[C@@H](C)CC)C(C)C)[C@@H](C)CC) [AT363] | 7 | 5 | 82 | -8.3 | 0 | 12.6 | 90 | 7.9
6 | EGTFISDYSIAMDKIK(C16 diacid)QQDFVNWLLAQKGKKNDWKHNI-OH (N-terminus assumed; SMILES CC[C@H](C)[C@H](NC(=O)[C@H](CC(N)=O)NC(=O)[C@H](Cc1c[nH]cn1)NC(=O)[C@H](CCCCN)NC(=O)[C@H](Cc1c[nH]c2ccccc12)NC(=O)[C@H](CC(=O)O)NC(=O)[C@H](CC(N)=O)NC(=O)[C@H](CCCCN)NC(=O)[C@H](CCCCN)NC(=O)CNC(=O)[C@H](CCCCN)NC(=O)[C@H](CCC(N)=O)NC(=O)[C@H](C)NC(=O)[C@H](CC(C)C)NC(=O)[C@H](CC(C)C)NC(=O)[C@H](Cc1c[nH]c2ccccc12)NC(=O)[C@H](CC(N)=O)NC(=O)[C@@H](NC(=O)[C@H](Cc1ccccc1)NC(=O)[C@H](CC(=O)O)NC(=O)[C@H](CCC(N)=O)NC(=O)[C@H](CCC(N)=O)NC(=O)[C@H](CCCCNC(=O)CCCCCCCCCCCCCCC(=O)O)NC(=O)[C@@H](NC(=O)[C@H](CCCCN)NC(=O)[C@H](CC(=O)O)NC(=O)[C@H](CCSC)NC(=O)[C@H](C)NC(=O)[C@@H](NC(=O)[C@H](CO)NC(=O)[C@H](Cc1ccc(O)cc1)NC(=O)[C@H](CC(=O)O)NC(=O)[C@H](CO)NC(=O)[C@@H](NC(=O)[C@H](Cc1ccccc1)NC(=O)[C@@H](NC(=O)CNC(=O)[C@@H](N)CCC(=O)O)[C@@H](C)O)[C@@H](C)CC)[C@@H](C)CC)[C@@H](C)CC)C(C)C)C(=O)O) [AT453] | 6.1 | 57 | 65 | -7.2 | 0 | 6.31 | 95 | 8.2
